From publication PMC10235961

Biological target: OleTPRN, CYP152 decarboxylase from Rothia nassimurium forming terminal (poly-unsaturated) olefins, wild type (Rothia nassimurium)
Assay: SEC

Question: For “OleTPRN, CYP152 decarboxylase from Rothia nassimurium forming terminal (poly-unsaturated) olefins, wild type (enzyme)”, which stoichiometry N is on record?
Answer: The stoichiometry N was 2.
